The experiment has as its target T1, COL6A3 (peptide named COL6A3-642) peptide on HLA-A*02:01 (human).
T1 peptide: FLLDGSANV
As to the kind of experiment: multimer staining.

B1: COL6A3-642 C4 TCR (TRAV1-2*01F-TRBV9*01F) (TCR, V domains shown)
Valpha: GQNIDQPTEMTATEGAIVQINCTYQTSGFNGLFWYQQHAGEAPTFLSYNVLDGLEEKGRFSSFLSRSKGYSYLLLKELQMKDSASYLCAVRADRGSTLGRLYFGRGTQLTVWP
Vbeta: DSGVTQTPKHLITATGQRVTLRCSPRSGDLSVYWYQQSLDQGLQFLIQYYNGEERAKGNILERFSAQQFPDLHSELNLSSLELGDSALYFCASSVDGGASGEQFFGPGTRLTVL
As to B1, the binding result is on record as “recognises”.

These data come from patent publication US20230227526A1 (published 2023).
